Laboratory results as given in patent US20260069689A1 (Regeneron, published 2026).
Several values for one entry are separate records, joined by “and”; a condition that tells them apart may be missing. Equal entries are not always repeated.

B1: mAb14292 (antibody, V domains shown)
VH: EVQLVESGGGLVQPGGSLRLSCVASGFAFSTYEMNWVRQAPGKGLEWVSYISSSGSTIYYADSVKGRLTISRDNVKNSLYLQMNSLRVEDTAIYYCARDAIRNNDILTDPATFDPWGQGTLVTVSS
VL: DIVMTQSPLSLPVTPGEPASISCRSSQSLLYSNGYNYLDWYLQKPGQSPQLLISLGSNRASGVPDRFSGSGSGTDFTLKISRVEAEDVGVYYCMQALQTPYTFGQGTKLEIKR
B2: mAb14315 (antibody, V domains shown)
VH: QVQLVQSGAEVKKPGSSVKVSCKASGDTFSTYAINWVRQAPGQGLEWMGRFIHIFGTANYAQKFQGRVTITADESTSTAYMELRSLRSEDTAVYYCARDGVDYGDYRPDYWGQGTLVTVSS
VL: EIVLTQSPGTLSLSPGERATLSCRASQSVSSNYLAWYQQKPGQAPRLLIYGASSRATGIPERFSGSGSGTDFTLTISRLEPEDFAVYYCQQYGSSLYTFGQGTKLEIKR
B3: mAb14281 (antibody, V domains shown)
VH: QVQLVQSGADVKKPGASVKVSCKTSGYIFTGYYIHWVRQAPGQGLEWMGWINPNSGGTNSAQKFQGRVTMTRDTSISTVYMELSRLRSDDTAVYYCAKSNSFSVLDYNFDYWGQGTLVTVSS
VL: SSELTQDPAVSVALGQTVRITCQGDSLRSYYASWYQQKPGQAPVLVIYDKNNRPSGIPDRFSGSSSGNTASLTITGAQAEDEADYYCNSRDSSRNHLVVFGGGTKLTVLG
B4: mAb14312 (antibody, V domains shown)
VH: EVQLVESGGGLVQPGGSLRLSCAASGFTVSRSYMTWVRQAPGKGLEWVSVIFTGGRTDHADSVKGRFTISRHNSKNTLYLQMNSLRTEDTAVYYCARVAIVGATGAFDIWGQGTMVTVSS
VL: QSVLTQPPSVSGAPGQRVTISCTGSSSNIGAGDDVHWYQQLPGTAPKLLIYGNSNRPSGVPDRFSGSKSGTSASLAITGLQAEDEADYYCQSYDSSLSGSVVFGGGTKLTVLG
B5: mAb15161 (antibody, V domains shown)
VH: EVQLVESGGGLVQPGGSLRLSCAASGFTFSSYEMNWVRQAPGKGLEWVSYISSSGSILYYADSVKGRFTASRDNAKNSLYLQMNSLRAEDTGVYYCARREYQLLRPFEFWGQGTLVTVSS
VL: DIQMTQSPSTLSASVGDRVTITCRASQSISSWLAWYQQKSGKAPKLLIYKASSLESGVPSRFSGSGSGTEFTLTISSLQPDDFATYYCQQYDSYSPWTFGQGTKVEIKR
B6: mAb15156 (antibody, V domains shown)
VH: QLQLQESGPGLVKSSETLSLTCTVSASITGSTYYWGWIRQPPGKGLEWIGSIYYSGTTYYKASLKSRVTISVDTSKNQFSLKLTSVTVADTAVYYCVSHLLGNYHKYGMDVWGQGTTVTVSS
VL: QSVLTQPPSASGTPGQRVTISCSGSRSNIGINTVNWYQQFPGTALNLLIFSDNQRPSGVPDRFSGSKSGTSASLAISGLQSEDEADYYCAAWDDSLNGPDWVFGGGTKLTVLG
B7: mAb14284 (antibody, V domains shown)
VH: QITLKESGPTLVKPTQTLTLTCTFSGFSFSTSGVGVGWIRQPPGKTLEWLALIYWDDDKRYSPSLKSRLTITKDTSKNQVVLTMTNMDPVDTATYFCAHHGIPTIFGYWGQGALVTVSS
VL: QSALTQPASVSGSPGQSITISCTGTSSDLGVFNYVSWYQQHPGKAPKLMIYEVTNRPSGVSNRFSGSKSGNTASLTISGLQAEDEADYYCSSYTTSSTVFGGGTKLTVLG
B8: mAb14283 (antibody, V domains shown)
VH: QVQLQESGPGLVKPSGTLSLTCDVSGGSISSNNWWSWVRQRPGKGLQWIGEIYHNENTNYNPSLKSRVIMSIDKSKNQFSLKLTSVTAADTAVYYCARGDVLDWFDPWGQGTLVTVSS
VL: QSALTQPASVSGSPGQSTTISCTGTSSDVGGYNYVSWYQQYPGKAPKLMIYDVTNRPSGVSHRFSGSKSGNTASLTISGLQAEDEADYYCSSYTSSSTVIFGGGTKLTVLG
B9: mAb14286 (antibody, V domains shown)
VH: QVQLVQSGAEVKKPGASVKVSCKASGYTFTDYFIHWVRQAPGQGLEWMGWINPTSGGTNYAQKFRGRVTMTRDTSISTAYVELSRLRSDDTALYYCARDLPFYSDTKQFDYWGQGTLVTVSS
VL: QSALTQPASVSGYPGQSITISCTGTSSDVGGYNYVSWYQQHPGKAPKLMIFDVSNRPSGVSNRFSGSKSGNTASLTFSGLQAEDEADYYCSSYTSSSTLVFGGGTKLTVLG
B10: mAb14282 (antibody, V domains shown)
VH: QVQLVQSGAEVKKPGASVKVSCKASGYIFTDHYMHWVRQAPGQGLEWMGWINPNSGATNYAQNFQGRVTMTRDTSIITVYMELSRLRSDDTAVYYCARDSSPYMIRYTMDVWGQGTTITVSS
VL: QSALTQPASVSGSPGQSITISCTGTSSDVGSYNLVSWYQQHPGKAPKLMIYELTKRPSGVSNRFSGSKSGNTASLTISGLQAEDEADYYCSSYRGSVTDVVFGGGTKLTVLG
B11: mAb14289 (antibody, V domains shown)
VH: QVQLVQSGPEVKKPGASVKVSCKASGYTFTSYAISWVRQAPGQGLEWMGWISAYNGNTNYAQKLQGRVTMTTDTFTSTAYMELRSLRSDDTAVYYCAVPADHITFDYWGQGTLVTVSS
VL: EIVLTQSPGTLSLSPGERATLSCRASQSVSSYLAWYQQKPGQAPRLLIHGASSRATGIPDRFSGSGSGTDFTLTISRLEPEDFAVYYCQQYGSSFLTFGGGTKVEIKR
B12: mAb14294 (antibody, V domains shown)
VH: EVQLVESGGGLVQPGGSLRLSCAASGFTFSNHWMDWVRQAPGKGLVWVSRINSDGSSTDYADSVRGRFTMSRDNAKNTLYLQMSSLRAEDTAVYYCAREGMIFGAVIIPGWYFDLWGRGALVTVSS
VL: EIVLTQSPGTLSLSPGERATLSCRASQSVSSSQLAWYQQKPGQAPRLLIYGASSRATGIPDRFSGSGSGTDFTLTISRLEPEDFAVYYCQQYDSFGQGTKLEIKR
B13: mAb15160 (antibody, V domains shown)
VH: EVQLVESGGGLVQPGGSLRLSCSASGFTFSRYAMYWVRQAPGKGLEYVSAISSDGGSTYDADSVKGRFTISRANSKNTLYLQMSSLRAEDTAVYYCVKGLRELLYYYYGMDVWGQGTTVTVSS
VL: DIQMTQSPSSLSASVGDRVTITCRAGQSISSFLNWYQQKPGKAPKLLIYAASSLQSGVPSRFSGSGSGTDFTLTISSLQPEDFATYYCQQSYITPFTFGPGTKVDIKR
B14: mAb15157 (antibody, V domains shown)
VH: EVQLVESGGALVQPGGSLRLSCAASGFPFTIYAMTWVRQAPGKGLEWVSVITGSGDSTYYADSVKGRFTISRDNSKNTLYLQMNSLRAEDTAVYYCVKTGEGFFYYYYGMDVWGQGTTVTVSS
VL: QSVLTQPPSVSAAPGQKVTISCSGSSSNIGNSYISWYQQLPGTAPKLLIYVNNKRPSGIPDRFSGSKSGTSATLGITGLQTGDEADYYCGTWDSSLSAGVFGSGTKVTVLG
B15: mAb14313 (antibody, V domains shown)
VH: EVQLVESGGGLVQPGRSLRLSCVASGFTFDDSAMHWVRQPPGKGLEWVSGISWNSGIIGYAESVKGRFIISRDNAKNSLFLHMRGLRPEDTAVYYCARDRLELSYYYYGMDVWGQGTTVTVSS
VL: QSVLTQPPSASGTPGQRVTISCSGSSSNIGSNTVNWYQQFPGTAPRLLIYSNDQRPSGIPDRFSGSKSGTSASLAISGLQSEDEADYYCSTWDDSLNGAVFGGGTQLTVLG
B16: mAb15159 (antibody, V domains shown)
VH: EVQLVESGGGLVQPGGSLRLSCAASGITVSSNYMTWVRQAPGKGLEWVSLIYSGGSTFYADSVRGRFTISRDNSKNTLYLQMNSLRAEDTAVYYCARDLVVYGMDVWGQGTTVTVSS
VL: DIQLTQSPSSLSASVGDRVTITCRASQGISSYLAWYQQKPGKAPKLLIYAASTLQSGVPSRFSGSGSGTDFTLTISSLQPEDFATYYCQHLNSDPHTFGQGTKLEIKR
B17: mAb14285 (antibody, V domains shown)
VH: QVQLVQSGAEVKKPGASVKVSCKASGYTFTGYFIHWVRQAPGQGLEWMGWISPISGGTNYAQKFQGRVTVTRDTSITTAYMELSRLTSDDTAVYHCAREGGTWKGDFDYWGQGTLVTVSS
VL: QSALTQPASVSGSPGQSITISCTGTSSDVESYNLVSWYQQHPGKAPKLMIYEGSKRPSGVSNRFSGSKSGNTASLTISGLQAEDEADYYCSSYAGSSTWVFGGGTKLTVLG
B18: mAb15158 (antibody, V domains shown)
VH: EVQLVESGGGLVQPGGSLRLSCAASGFSFSSNWMSWVRQAPGKGLEWVGNINQDGSEKYYVDSVEGRFTISRDNAKKSLYLQMNSLRAEDTAVYYCARDLGVLWFGDFVDWGQGALVTVSS
VL: DIQMTQSPSSLSASVGDRVTITCRASQAISNSLAWYQQKPGKAPKLLLYAASTLESGVPSRFSGSGSGTDYTLTISSLQPEDFATYYCLQYYGSPRTFGQGTKVEIKR

What was measured:
[1] = molecular target: T1, SARS-COV-2 RBD-MMH (SARS-COV-2 RBD extracellular domain with C-terminal myc-myc-hexahistidine tag) (SARS-CoV-2); test: SPR 37C, mAb captured, pH 7.4 vs pH 6.0
[2] = molecular target: T1, SARS-COV-2 RBD-MMH (SARS-COV-2 RBD …)
[3] = molecular target: SARS-CoV-2 RBD.mmh (Spike amino acids Arg319-Phe541 with C-terminal myc-myc-6-Histidine tag) (SARS-CoV-2, UniProt P0DTC2 319-541)

Binder	t½ Ratio of pH 7.4 to pH 6.0 [1]	koff [2]	t½ at pH 6.0 [2] [min]	t½ at pH 7.4 [2] [min]	IC50 [3] [pM]
B1	1.3	0.00141 s⁻¹ and 0.00178 s⁻¹	6.5	8.2	254
B2	1	0.000946 s⁻¹	12.2	11.8	17200
B3	1.1	0.00734 s⁻¹	1.6	1.8	397
B4	2.1	0.00177 s⁻¹	6.5	13.5	134
B5	0.9	0.00107 s⁻¹	10.8	10.3	584
B6	1.4	0.0097 s⁻¹	1.2	1.7	269
B7	0.9	0.000574 s⁻¹	20.1	18.5	367
B8	1.2	0.002 s⁻¹	5.8	6.9	373
B9	1	0.00999 s⁻¹	1.2	1.2	641
B10	0.8	0.00985 s⁻¹	1.2	0.9	502
B11	1.5	0.00272 s⁻¹	4.2	6.2	378
B12	0.6	0.000565 s⁻¹	20.5	12.6	244
B13	1.3	0.00283 s⁻¹	4.1	5.3	204
B14	1.9	0.00766 s⁻¹	1.5	2.9	357
B15	1.6	0.00251 s⁻¹ and 0.0041 s⁻¹	2.8	4.6	16400
B16	1.8	0.000412 s⁻¹	28.1	50	156
B17	0.5	0.0144 s⁻¹	0.8	0.4	1700
B18	0.9	0.00029 s⁻¹	40.1	37	309
